Experiments:
LARP6 La-module [1] = biological target: T1, LARP6 La-module (Homo sapiens, UniProt Q9BRS8 70-300); assay: BLI; 0.5 mM Mg2+; BLI: 20 mM Tris-HCl pH 7.5, 100 mM KCl, 0.5 mM MgCl2, 1 mM TCEP, 0.05% Tween-20, 25 °C; MST, NMR and SAXS buffers not in the material; details: protein: recombinant; tags: His tag cleaved by TEV; label: 5' biotin; single strand
T1 sequence: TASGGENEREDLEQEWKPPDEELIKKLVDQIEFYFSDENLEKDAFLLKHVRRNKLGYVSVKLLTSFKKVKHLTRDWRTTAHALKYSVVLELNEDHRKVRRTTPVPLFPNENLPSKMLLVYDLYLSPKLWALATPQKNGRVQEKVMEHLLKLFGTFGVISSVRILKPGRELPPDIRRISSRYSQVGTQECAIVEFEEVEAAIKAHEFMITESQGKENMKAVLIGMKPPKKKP

LARP6 NTD [2] = biological target: T2, LARP6 NTD (Homo sapiens, UniProt Q9BRS8 2-300); assay: BLI; Mg; 20 mM Tris-HCl pH 7.5, 100 mM KCl, 0.5 mM MgCl2, 1 mM TCEP, 0.05% Tween-20, 25 C; steady state, 1:1 fit; details: label: 5' biotin
T2 sequence: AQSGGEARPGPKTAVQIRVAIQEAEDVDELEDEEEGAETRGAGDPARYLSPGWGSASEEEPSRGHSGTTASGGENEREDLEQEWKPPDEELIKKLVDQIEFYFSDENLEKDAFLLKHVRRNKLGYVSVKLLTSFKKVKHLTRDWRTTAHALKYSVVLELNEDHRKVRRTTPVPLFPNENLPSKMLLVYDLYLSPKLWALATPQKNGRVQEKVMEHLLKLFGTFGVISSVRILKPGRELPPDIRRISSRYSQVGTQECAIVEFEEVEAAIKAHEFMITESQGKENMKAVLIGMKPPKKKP

LARP6 La-module [3] = biological target: T1, LARP6 La-module; assay: as above; details: label: 5' biotin
LARP6 NTD [4] = biological target: T2, LARP6 NTD; assay: BLI; 0.5 mM Mg2+; BLI: 20 mM Tris-HCl pH 7.5, 100 mM KCl, 0.5 mM MgCl2, 1 mM TCEP, 0.05% Tween-20, 25 °C; MST, NMR and SAXS buffers not in the material; details: protein: recombinant; tags: 6xHis-SUMO-TEV tag, cleaved; label: 5' biotin; single strand
LARP6 NTR [5] = biological target: T3, LARP6 NTR (Homo sapiens, UniProt Q9BRS8 2-83); assay: as above; details: protein: recombinant; tags: 6xHis-SUMO-TEV tag, cleaved; label: 5' biotin; single strand
T3 sequence: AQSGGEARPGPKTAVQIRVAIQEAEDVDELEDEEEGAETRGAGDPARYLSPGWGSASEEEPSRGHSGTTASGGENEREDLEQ

LARP6 NTR [6] = biological target: T3, LARP6 NTR; assay: MST; BLI: 20 mM Tris-HCl pH 7.5, 100 mM KCl, 0.5 mM MgCl2, 1 mM TCEP, 0.05% Tween-20, 25 °C; MST, NMR and SAXS buffers not in the material; details: protein: recombinant; tags: 6xHis-SUMO-TEV tag, cleaved; label: 5' 6-FAM; single strand
LARP6 NTD [7] = biological target: T2, LARP6 NTD; assay: as above; details: protein: recombinant; tags: 6xHis-SUMO-TEV tag, cleaved; label: 5' 6-FAM; single strand
LARP6 La-module [8] = biological target: T1, LARP6 La-module; assay: as above; details: protein: recombinant; tags: His tag cleaved by TEV; label: 5' 6-FAM; single strand

GGAAAUGGGCAGACUGAACCAGUCC (ssRNA) [CTNNA1 P2]
Kd (LARP6 La-module [1]): 0.91 ± 0.05 nM | Kd (LARP6 NTD [2]): 17 ± 1.2 nM | Kd (LARP6 La-module [3]): 0.9 ± 0.05 nM

AGGUGGUGAAUUUUCCAAGAACAUA (ssRNA) [CTNNA1 D1]
Kd (LARP6 NTD [4]): 85 ± 4 nM | Kd (LARP6 NTD [2]): 87 ± 4 nM | Kd (LARP6 La-module [3]): 2 ± 0.1 nM

GUUUAAGUUGAUUAAAAAUGCUUUU (ssRNA) [CTNNA1 D2]
Kd (LARP6 NTD [4]): 367 ± 57 nM | Kd (LARP6 NTD [2]): 360 ± 57 nM | Kd (LARP6 La-module [3]): 6.9 ± 0.6 nM

CUAAAUACAACACUGAUACUAGAUU (ssRNA) [CTNNA1 P1]
Kd (LARP6 NTD [2]): 58 ± 5 nM | Kd (LARP6 La-module [3]): 1.3 ± 0.4 nM

CUAAAUACAACACUGAUACUAGAUU (ssRNA) [CTNNA1 P1 (5' biotin)]
Kd (LARP6 NTR [5]): 1200 ± 500 nM | Kd (LARP6 NTD [4]): 61 ± 5 nM | Kd (LARP6 La-module [1]): 1.5 ± 0.4 nM

CUAAAUACAACACUGAUACUAGAUU (ssRNA) [CTNNA1 P1 (5' 6-FAM)]
Kd (LARP6 NTR [6]): 8300 nM | Kd (LARP6 NTD [7]): 99 nM | Kd (LARP6 La-module [8]): 5.8 nM

CCCUCGGGGCUCCUGAAUAUCAGUC (ssRNA) [CTNNA1 U2]
Kd (LARP6 NTD [4]): 183 ± 5 nM | Kd (LARP6 La-module [1]): 4.4 ± 0.1 nM | Kd (LARP6 NTD [2]): 180 ± 5 nM | Kd (LARP6 La-module [3]): 4.3 ± 0.1 nM

ACUGUUCGUCACUCAAAUGAAUUUG (ssRNA) [CTNNA1 U1]
Kd (LARP6 NTD [4]): 587 ± 29 nM | Kd (LARP6 La-module [3]): 14 ± 0.8 nM

From article PMC13031558, “An intrinsically disordered region mediates RNA-binding selectivity and cellular activities of LARP6”
